The record followed here is publication PMC2191588.

The target in the assay is TCR beta proteins on normal splenic CD4+ T cells (mouse (endogenous in splenic CD4+ T cells)). In words: flow cytometry on cells.

“CD3 epsilon (from UniProt P22646 22-189) (natural protein)”: the stoichiometry N (CD3e per TCR beta) came out at 2.
